B1: Spindle pole body assembly component MPS3 (Saccharomyces cerevisiae), P47069 (parent)
chain: MNNSNEHRREEAGAANEQMPYNKAVKSAYADVLKDKMNREQEISLRAIKKGIYTDGGETDNYDMDKENDSAYEMFKKNLDFPLDQHNDDDDDDPYIEDNGQETDGYSDEDYTDEADKSFIEDSDSDSYDLESNSDFEENLESSGEAKKLKWRTYIFYGGLFFVFYFFGSFLMTTVKNNDLESHSSGATSSPGKSFSNLQKQVNHLYSELSKRDEKHSSELDKTVKIIVSQFEKNIKRLLPSNLVNFENDINSLTKQVETISTSMSELQRRNHKFTVENVTQWQDQLVKQLDTHLPQEIPVVINNSSSLLIIPELHNYLSALISDVIESPGIGTAGSAESRWEYDLNRYVKEILSNELQYIDKDYFIQEMNRRLQSNKQEIWEEITNRLETQQQQQQQQVQQDYSNVPQQYSSILMKRLIHQIYNSNQHQWEDDLDFATYVQGTKLLNHLTSPTWRQGSGVQPIELLTDSKQSSSTYWQCENEPGCSWAIRFKTPLYLTKISYMHGRFTNNLHIMNSAPRLISLYVKLSQTKEIKALQTLANQYGFGQHHKRDRNYIKIAKFEYRLTDSRIRQQMYLPPWFIQLKPLVRSIVFQVDENYGNKKFISLRKFIINGVTPQDLQIIENNEFPVLLGDTPEYGVTQNTDEGKRKVLLSKPPYASSSTSTKFHPASNVPSFGQDELDQ
partner: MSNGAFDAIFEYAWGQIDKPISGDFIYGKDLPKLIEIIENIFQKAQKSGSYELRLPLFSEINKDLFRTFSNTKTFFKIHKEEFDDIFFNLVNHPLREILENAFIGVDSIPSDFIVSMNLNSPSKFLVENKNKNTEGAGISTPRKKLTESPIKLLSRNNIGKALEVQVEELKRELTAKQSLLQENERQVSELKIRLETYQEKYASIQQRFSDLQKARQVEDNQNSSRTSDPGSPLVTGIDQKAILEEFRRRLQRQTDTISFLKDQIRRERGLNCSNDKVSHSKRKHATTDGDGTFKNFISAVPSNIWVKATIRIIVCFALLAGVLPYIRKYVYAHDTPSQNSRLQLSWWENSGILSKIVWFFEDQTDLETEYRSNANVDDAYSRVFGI

Variants of: B1
Conditions: with mps2_yeast MPS2, P53159
W487A was tested, and the “effect of a mutation on the interaction” value was “decreasing interaction”. For W477A, the “effect of a mutation on the interaction” value was “decreasing interaction”. With Q572L;Q573L the “effect of a mutation on the interaction” value was “decreasing interaction”.

From IntAct's records for PubMed 16923827
